# Measurements as given in PMC7618050, “Structure of the Bacteriophage PhiKZ non-virion RNA Polymerase transcribing from its promoter p119L”.
# Biological target: PhiKZ nvRNAP GP55 (beta'-like);PhiKZ nvRNAP GP74 (beta'-like);PhiKZ nvRNAP GP71-73 (beta-like);PhiKZ nvRNAP … (Pseudomonas phage phiKZ;Pseudomonas …, UniProt Q8SDA7;Q8SD88;PDB:8QUE_2;Q8SD39;Q8SD94 1-420;1-677;1-700;1-543;1-521, ||||)
# Test: cryo-EM structure (3.3 A); 10 mM MgCl2; 1 mM ATP, CTP, GTP, no UTP; Zn2+ in GP55; 40 mM Tris-Cl pH 8.0, 10 mM MgCl2, 5 mM DTT, 1 mM ATP/CTP/GTP, 30 min at 37 C, nvRNAP 0.1 mg/mL with scaffold 1:1; native PAGE 4-20% TGX at 4 C
# Conditions: protein: recombinant;recombinant;recombinant;recombinant;recombinant; tags: ;;;;; copies: 1;1;1;1;1; label: Cy5 at 5' end of RNA (printed Cy5-GUAGA); non-template/template DNA with mismatched bubble; RNA hybrid with template (6 bp resolved)
binder,measurement,value
p119L RNA/DNA template with RNA extended by 3 nt (mixed) DNA 1: AGTAATTTTAGTGAATGTATTTGCTATATTGCTATCCTAACAGTTCCCAAAAGCCTAAAGTTACAATATAGGTAC DNA 2: GTACCTATATTGTAACTTTAGGCTTTTGGGAACTGTCTACATAGCAATATAGCAAATACATTCACTAAAATTACT RNA: GUAGACAG,binding result,binds
